# Experimental data: FireProtDB (doi:10.1110/ps.8.8.1623)
# Several values for one entry are separate records, joined by “and”; a condition that tells them apart may be missing. Identical values can stand only once.
# Conditions: Escherichia coli (strain K12), pH 7.8, 25 °C, Urea, Potassium phosphate 100 mM, transition: 3, whole UniProt chain shown
protein,measurement,setting,value
"Tryptophan synthase alpha chain wild type, P0A877 (protein) MERYESLFAQLKERKEGAFVPFVTLGDPGIEQSLKIIDTLIEAGADALELGIPFSDPLADGPTIQNATLRAFAAGVTPAQCFEMLALIRQKHPTIPIGLLMYANLVFNKGIDEFYAQCEKVGVDSVLVADVPVEESAPFRQAALRHNVAPIFICPPNADDDLLRQIASYGRGYTYLLSRAGVTGAENRAALPLNHLVAKLKEYNAAPPLQGFGISAPDQVKAAIDAGAAGAISGSAIVKIIEQHINEPEKMLAALKVFVQPMKAATRS",unfolding free energy,CD,6.6 kcal/mol and 4.6 kcal/mol and 4.4 kcal/mol
same,denaturant m value,Fluorescence,2.2 kcal/mol/M and 1.1 kcal/mol/M and 0.83 kcal/mol/M
same,unfolding free energy,Fluorescence,6 kcal/mol and 4.5 kcal/mol and 4.9 kcal/mol
